Consider 116 sequences from the supplement of paper PMC10724198.

± gives the standard deviation of the averaged measurements.
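Further: PSI is a weighted mean of sequencing reads over stability bins, variants kept only with over 10 reads, mCherry proximal and sfGFP distal, peptide attached via GGGS linker.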

For the series, the system named is Saccharomyces cerevisiae. Put plainly: protein stability index of tFT-peptide fusion (C-terminal peptide) (PSI (0-1 scale)); higher = more stable (slower turnover). Conditions: genetic background: wild type; temperature: 30 C. On the procedure:
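Multiplexed protein stability (MPS) profiling in S. cerevisiae. Random 12-aa peptides (tFT-X12 library) are fused to the C-terminus of a sfGFP-mCherry tandem fluorescent timer, after mCherry and a GGGS linker. Cells are FACS-sorted into 8 mCherry/sfGFP bins and deep-sequenced. The protein stability index (PSI) is the read-weighted bin average, scaled from 0 (unstable) to 1 (stable). Only peptides with >10 reads are reported; cells were grown at 30 °C in SC-His with glucose.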
With GGGGGEWCLVRL, the protein stability index came to 0.688 ± 0.027.

In the case of GGGGGGGGYLGA, the protein stability index is 0.715 ± 0.027.

Regarding GGGGGGGWGAVG, the protein stability index came out at 0.688 ± 0.0076.

As to GGGGGGLLDVGV, the protein stability index is 0.685 ± 0.027.

As for GGGGGLVVFGWK, the protein stability index turned out to be 0.687 ± 0.007.

GGGGGVRLVVSR: the protein stability index worked out at 0.668 ± 0.027.

Turning to GGGGGVSGGGVF, the protein stability index was 0.672 ± 0.063.

Take GGGGRGLLDVGV: the protein stability index was 0.689 ± 0.031.

GGGGRGVGRGWG returned a protein stability index of 0.675 ± 0.0046.

For GGGGSFLVGLGL, the protein stability index was found to be 0.647 ± 0.056.

In the case of GGGGSRWAGPRC, the protein stability index came out at 0.636 ± 0.031.

The sequence GGGGVVRAWGLR displayed a protein stability index of 0.738 ± 0.043.

The sequence GGGLAPADQVGV came in with a protein stability index of 0.729 ± 0.043.

GGGLGAGWGVWG displayed a protein stability index of 0.68 ± 0.035.

GGGLGGGGFRGG displayed a protein stability index of 0.749 ± 0.033.

GGGLGGLGCFMV had a protein stability index of 0.698 ± 0.036.

In the case of GGGLSWARRSPS, the protein stability index is 0.683 ± 0.069.

The sequence GGGLVLSGWCVW displayed a protein stability index of 0.751 ± 0.026.

With GGGREGEIGGGG, the protein stability index turned out to be 0.5705 ± 0.0013.

For GGGRGGFRVVVG, the protein stability index turned out to be 0.744 ± 0.042.

Turning to GGGRGGSTPALG, the protein stability index was 0.667 ± 0.03.

With GGGRGWAGENTR, the protein stability index is 0.704 ± 0.028.

For GGGRPGLRALSY, the protein stability index was determined as 0.747 ± 0.034.

GGGSGGEAVRVW yielded a protein stability index of 0.645 ± 0.026.

Consider GGGSGGRRLVRF, for which the protein stability index was determined as 0.726 ± 0.023.

Regarding GGGSHASERAAR, the protein stability index was 0.723 ± 0.022.

As to GGGSIAPRSVGT, the protein stability index is 0.7649 ± 0.0021.

GGGSVGMWGWWV displayed a protein stability index of 0.625 ± 0.075.

With GGGTGALGTVRW, the protein stability index was found to be 0.765 ± 0.055.

GGGVGLRGGWDG had a protein stability index of 0.71 ± 0.044.

On to GGGVRGGVLVLG, for which the protein stability index came to 0.51 ± 0.03.

GGGVSSEWSGCR returned a protein stability index of 0.665 ± 0.0087.

GGGVWGVGRGIL came in with a protein stability index of 0.6 ± 0.013.

In the case of GGGWGGGGSSCA, the protein stability index was determined as 0.659 ± 0.055.

On to GGGWGSMDLRDR, for which the protein stability index stood at 0.712 ± 0.016.

GGGWSRGGVGDR: the protein stability index worked out at 0.672 ± 0.027.

The sequence GGGWSRRGVGDR displayed a protein stability index of 0.673 ± 0.028.

Take GGIRGEGEVGKR: the protein stability index stood at 0.69 ± 0.021.

GGKLNRAGRATG: the protein stability index was found to be 0.697 ± 0.088.

In turn, GGLACTLAAFYL showed a protein stability index of 0.733 ± 0.047.

On to GGLGFVGGVRVQ, for which the protein stability index stood at 0.6705 ± 0.00086.

In turn, GGLICRHGVGRG gave a protein stability index of 0.705 ± 0.024.

Regarding GGLRRMGVRPCA, the protein stability index was found to be 0.715 ± 0.21.

As to GGLSGGMRIEDS, the protein stability index worked out at 0.686 ± 0.028.

For the sequence GGLVTSGGWRCA, the protein stability index was 0.71 ± 0.065.

For the sequence GGLWLCFVPEVM, the protein stability index amounted to 0.563 ± 0.0077.

GGMAWGPVCGAG returned a protein stability index of 0.6906 ± 0.0018.

Turning to GGNRRIKEKSRL, the protein stability index is 0.785 ± 0.016.

Sequence GGPESMDILRFR yielded a protein stability index of 0.62 ± 0.069.

Regarding GGPPSPPFFDAV, the protein stability index is 0.741 ± 0.081.

On to GGPTCSSSCDPV, for which the protein stability index is 0.67 ± 0.038.

GGRCGEGLVREG gave a protein stability index of 0.702 ± 0.021.

GGRGGEGRGGSG: the protein stability index was determined as 0.658 ± 0.018.

GGRGPSAVGSGV registered a protein stability index of 0.74 ± 0.085.

GGRGRGMWGIFG showed a protein stability index of 0.681 ± 0.0096.

As for GGRGRWEMVGRT, the protein stability index is 0.7 ± 0.021.

Sequence GGRGSGLVGCSL returned a protein stability index of 0.6 ± 0.065.

Turning to GGRGVVVVQGAG, the protein stability index came to 0.6978 ± 0.0013.

With GGRGWRSGTEGE, the protein stability index was found to be 0.675 ± 0.013.

Sequence GGRGWWRGTGSG registered a protein stability index of 0.719 ± 0.056.

In turn, GGRIRLLTYFGR came in with a protein stability index of 0.601 ± 0.042.

For GGRLGRGVVRGW, the protein stability index worked out at 0.704 ± 0.011.

As for GGRRVWAGRTGV, the protein stability index stood at 0.734 ± 0.077.

GGRSGGWCGCWG had a protein stability index of 0.711 ± 0.032.

GGRVAGSMGGGG came in with a protein stability index of 0.719 ± 0.056.

As to GGRVLKFLLGRL, the protein stability index came to 0.668 ± 0.15.

Sequence GGRVWGAVGAGP yielded a protein stability index of 0.627 ± 0.082.

Turning to GGSALGCLCRWM, the protein stability index amounted to 0.823 ± 0.029.

Sequence GGSEEGGKAAKT showed a protein stability index of 0.652 ± 0.015.

For the sequence GGSGGAVEERGG, the protein stability index worked out at 0.6573 ± 0.0013.

Turning to GGSRGVGASEEC, the protein stability index was 0.6515 ± 0.005.

With GGSRRGRRLLTQ, the protein stability index came to 0.699 ± 0.037.

With GGTGWVGEMGGR, the protein stability index is 0.796 ± 0.069.

GGTHCRVCCVLF registered a protein stability index of 0.659 ± 0.02.

Turning to GGVATQARQTCN, the protein stability index amounted to 0.742 ± 0.17.

The sequence GGVFTHLEKAVD had a protein stability index of 0.649 ± 0.046.

In turn, GGVGAFAARRFA displayed a protein stability index of 0.634 ± 0.012.

GGVGCLGVFSVG: the protein stability index was determined as 0.7 ± 0.013.

The sequence GGVGGAGGRNRG returned a protein stability index of 0.674 ± 0.014.

In turn, GGVGGCARVWPR displayed a protein stability index of 0.654 ± 0.061.

GGVGGGAAEGAV had a protein stability index of 0.758 ± 0.024.

Sequence GGVGVGRGVCVF displayed a protein stability index of 0.6187 ± 0.0012.

GGVLLPGFSHLL had a protein stability index of 0.7133 ± 0.0068.

As for GGVRRSPRAILR, the protein stability index was found to be 0.705 ± 0.014.

In turn, GGVSCYVHRRAR showed a protein stability index of 0.688 ± 0.06.

With GGVSGEGFSWVG, the protein stability index was determined as 0.66987 ± 0.0004.

Turning to GGVVACGLRVAS, the protein stability index was found to be 0.62 ± 0.058.

In the case of GGVVGGRAGRGG, the protein stability index is 0.617 ± 0.033.

With GGVVGVEWGAVG, the protein stability index stood at 0.626 ± 0.015.

Take GGVVRGVWVGRG: the protein stability index was 0.725 ± 0.028.

GGVYVASQGTFV had a protein stability index of 0.673 ± 0.021.

Turning to GGWAGLGAPGVS, the protein stability index worked out at 0.697 ± 0.028.

Consider GGWCGGGGAWSG, for which the protein stability index is 0.6985 ± 0.0027.

Turning to GGWGGGCGACVV, the protein stability index is 0.72 ± 0.073.

On to GGWGGRSGTEGE, for which the protein stability index was found to be 0.686 ± 0.013.

For the sequence GGWGPGALEVGT, the protein stability index came out at 0.6578 ± 0.0018.

The sequence GHAPSSCPPPPR gave a protein stability index of 0.692 ± 0.062.

Take GHCFCRLLPLHW: the protein stability index is 0.755 ± 0.025.

GHCVALGNRVLH returned a protein stability index of 0.665 ± 0.068.

GHDWRNPRLVED had a protein stability index of 0.645 ± 0.062.

In the case of GHRAEGMWSGGL, the protein stability index worked out at 0.751 ± 0.098.

The sequence GHRRLGNRWSVG showed a protein stability index of 0.671 ± 0.035.

Consider GIDKTNHKQEKN, for which the protein stability index came to 0.691 ± 0.0085.

In turn, GIGFHSREIGER returned a protein stability index of 0.66 ± 0.055.

Sequence GIGGNWAVSRNC came in with a protein stability index of 0.73 ± 0.12.

Sequence GIGKADSKRERS registered a protein stability index of 0.652 ± 0.00097.

Take GIKKKKKKQDKK: the protein stability index was 0.728 ± 0.076.

In turn, GIMPVRENCGVF showed a protein stability index of 0.6422 ± 0.0048.

Consider GIPYALVTPPFP, for which the protein stability index stood at 0.7724 ± 0.0077.

In turn, GIRKNIDNNEKI registered a protein stability index of 0.686 ± 0.03.

GITSGRAVGGRA had a protein stability index of 0.713 ± 0.011.

GIVCGDADMEGG returned a protein stability index of 0.676 ± 0.051.

Turning to GKALESLEGQFT, the protein stability index came to 0.728 ± 0.019.

In turn, GKEGGRERVANE showed a protein stability index of 0.639 ± 0.091.

Take GKFTGPLGARSR: the protein stability index was determined as 0.658 ± 0.032.

As for GKKPNSGKNKKK, the protein stability index was found to be 0.694 ± 0.049.
